In publication PMC3954559:

Key:
[1] = target: commercial immunoglobulin containing Fc; test: SPR
[2] = target: partially deglycosylated Fc (mouse IgG3 Fc domain treated with a mixture of endoglycosidases) (mouse); test: SPR

B1: mouse Fc receptor (FcR gamma I) (receptor)
chain: EVVNATKAVITLQPPWVSIFQKENVTLWCEGPHLPGDSSTQWFINGTAVQISTPSYSIPEASFQDSGEYRCQIGSSMPSDPVQLQIHNDWLLLQASRRVLTEGEPLALRCHGWKNKLVYNVVFYRNGKSFQFSSDSEVAILKTNLSHSGIYHCSGTGRHRYTSAGVSITVKELFTTPVLRASVSSPFPEGSLVTLNCETNLLLQRPGLQLHFSFYVGSKILEYRNTSSEYHIARAEREDAGFYWCEVATEDSSVLKRSPELELQVLGPQSSAPVWFHILFYLSVGIMFSLNTVLYVKIHRLQREKKYNLEVPLVSEQGKKANSFQQVRSDGVYEEVTATASQTTPKEAPDGPRSSVGDCGPEQPEPLPPSDSTGAQTSQS
With B1 the Kd [1] was 384 nM and the Kd [2] was 1330 nM.
